Laboratory results taken from US20220002363A1, “COMPOSITIONS AND METHODS FOR TREATING PULMONARY DISEASE” (United States Government As Represented By The Department …, priority 2020, published 2022).
Positions count from the first letter of the chain named.

Molecular target: T1, WT-sFasL (Homo sapiens, UniProt P48023)
T1 construct: made in house
T1 sequence (P48023 103-281): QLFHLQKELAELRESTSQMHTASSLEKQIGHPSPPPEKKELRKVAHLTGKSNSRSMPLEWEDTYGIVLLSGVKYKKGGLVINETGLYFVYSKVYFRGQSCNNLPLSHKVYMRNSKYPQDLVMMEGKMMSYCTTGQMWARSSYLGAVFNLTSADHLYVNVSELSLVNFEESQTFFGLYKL
Assay: Attenuation of WT-sFasL-induced caspase 3/7 activity in Jurkat cells by molar mixtures of WT and mut-sFasL
Type: cell-based
Conditions: serial dilutions of mut sFasL
Method: FIGS. 2A-D show the mut-sFasL has inhibitory properties. Highly Fas-sensitive Jurkat cells (FIG. 2A), primary human lung small airway epithelial cells (SAEC, FIG. 2B) or murine lung epithelial cells (LA4, FIG. 2D) were incubated with serial dilutions of mutated FasL, (mut sFasL). […] As a confirmatory test, the experiment was repeated using SAEC and an annexin-V translocation assay (FIG. 2C). WT=wild type (no mutant). […] Each dot represents individual data; lines represent means±SD. *=P<0.05; **=P<0.01, ***P<0.001 when compared to WT. One way ANOVA with SIdak's post hoc analysis.
Methods. Cells and cell culture. To test Fas responses in vitro, the highly-Fas sensitive cell line, Jurak, was used. […]
Measurements of apoptotic cascade activation. Apoptotic cascade activation was assessed by determining caspase 3/7 activity and Annexin V externalization. Caspase-3/7 activity was measured using a commercial substrate (Caspase-Glo 3/7 Assay, Promega, Madison, Wis., Cat #G8090) following manufacturer's instructions. Annexin V was measured with a luminescent commercial assay that allows for measurement of annexin V externalization in adherent cells (RealTime-Glo Annexin V assay, Promega, Madison, Wis., Cat #JA1011). Luminescence was measured with a Synergy H4 Microplate Reader (BioTek, Winooski, Vt.). […]

B1: mut-sFasL: mutant sFasL molecule in which 8 charged amino acids in the 26 amino acid stalk region were changed to alanine (protein)
chain: T1 sequence (P48023 103-281) with H4A, K7A, E8A, E11A, R13A, E14A, H20A, E26A
In the case of B1, the “inhibition of wild type sFasL activity (caspase 3/7)” value is reported as “dose-dependent inhibition of wild type sFasL activity”.
